In article PMC12651572 (Cells, 2025):

Columns and labels:
Test in all cases: ELISA; recombinant human antigen coated at 1 μg/mL on Maxisorp plate overnight; antibodies 2 h at room temperature with shaking; HRP anti-human IgG, TMB, OD 450 nm; EC50 by 4PL fit
Conditions in all cases: both partners purified
[1] = target: T1, Recombinant human IL-4Rα/IL-13Rα1 receptor complex (Homo sapiens, UniProt P24394;P78552)
T1 construct: interleukin-4 receptor subunit alpha, human, recombinant; interleukin-13 receptor subunit alpha-1, human, recombinant; source: bought: AcroBiosystems

[2] = target: T2, Recombinant human TSLP (thymic stromal lymphopoietin) (Homo sapiens, UniProt Q969D9)
T2 construct: thymic stromal lymphopoietin, human, recombinant; The reporter and T cell assays used other lots of recombinant human TSLP (R&D Systems for the reporter assay); source: bought: AcroBiosystems

[3] = target: T3, Recombinant human IL-4Rα (IL-4 receptor alpha chain) (Homo sapiens, UniProt P24394)
T3 construct: interleukin-4 receptor subunit alpha, human, recombinant; source: bought: AcroBiosystems

B1: IL4R-dupi parental anti-IL-4Rα antibody (dupilumab Fab arms on IgG1 Fc with K409R) (antibody, V domains shown)
VH: EVQLVESGGGLEQPGGSLRLSCAGSGFTFRDYAMTWVRQAPGKGLEWVSSISGSGGNTYYADSVKGRFTISRDNSKNTLYLQMNSLRAEDTAVYYCAKDRLSITIRPRYYGLDVWGQGTTVTVSS
VL: DIVMTQSPLSLPVTPGEPASISCRSSQSLLYSIGYNYLDWYLQKSGQSPQLLIYLGSNRASGVPDRFSGSGSGTDFTLKISRVEAEDVGFYYCMQALQTPYTFGQGTKLEIK
notes: variable region of the dupilumab heavy chain; CH1 and hinge are not described; dupilumab light chain; IgG1; Not the dupilumab analogue with native IgG4 Fc, which was used in the mouse study and the FcRn ELISA; also called IL4R-dupi parental antibody; bivalent IL4R-dupi; source: Expi293F, transiently co-transfected, purified (MabSelect SuRe)
What does the source list for B1?
EC50 [1]: 0.19 nM; binding result [2]: no binding; EC50 [3]: ~0.76 nM
